Experimental data taken from PMC9618773 (iScience, 2022).

B4: full-length human steroid receptor coactivator-2 (natural protein)
chain: not shown

Columns and labels:
full-length human p300 [1] = target: T1, full-length human p300 (human, UniProt Q09472 1-2414); assay: pull-down
[2] = target: B4; assay: pull-down
full-length human p300 [3] = target: T1, full-length human p300; assay: cryo-EM structure
cryo-EM structure = target: the molecule itself; assay: cryo-EM structure
[4] = target: B4; assay: cryo-EM structure

T1 sequence (Q09472 whole entry): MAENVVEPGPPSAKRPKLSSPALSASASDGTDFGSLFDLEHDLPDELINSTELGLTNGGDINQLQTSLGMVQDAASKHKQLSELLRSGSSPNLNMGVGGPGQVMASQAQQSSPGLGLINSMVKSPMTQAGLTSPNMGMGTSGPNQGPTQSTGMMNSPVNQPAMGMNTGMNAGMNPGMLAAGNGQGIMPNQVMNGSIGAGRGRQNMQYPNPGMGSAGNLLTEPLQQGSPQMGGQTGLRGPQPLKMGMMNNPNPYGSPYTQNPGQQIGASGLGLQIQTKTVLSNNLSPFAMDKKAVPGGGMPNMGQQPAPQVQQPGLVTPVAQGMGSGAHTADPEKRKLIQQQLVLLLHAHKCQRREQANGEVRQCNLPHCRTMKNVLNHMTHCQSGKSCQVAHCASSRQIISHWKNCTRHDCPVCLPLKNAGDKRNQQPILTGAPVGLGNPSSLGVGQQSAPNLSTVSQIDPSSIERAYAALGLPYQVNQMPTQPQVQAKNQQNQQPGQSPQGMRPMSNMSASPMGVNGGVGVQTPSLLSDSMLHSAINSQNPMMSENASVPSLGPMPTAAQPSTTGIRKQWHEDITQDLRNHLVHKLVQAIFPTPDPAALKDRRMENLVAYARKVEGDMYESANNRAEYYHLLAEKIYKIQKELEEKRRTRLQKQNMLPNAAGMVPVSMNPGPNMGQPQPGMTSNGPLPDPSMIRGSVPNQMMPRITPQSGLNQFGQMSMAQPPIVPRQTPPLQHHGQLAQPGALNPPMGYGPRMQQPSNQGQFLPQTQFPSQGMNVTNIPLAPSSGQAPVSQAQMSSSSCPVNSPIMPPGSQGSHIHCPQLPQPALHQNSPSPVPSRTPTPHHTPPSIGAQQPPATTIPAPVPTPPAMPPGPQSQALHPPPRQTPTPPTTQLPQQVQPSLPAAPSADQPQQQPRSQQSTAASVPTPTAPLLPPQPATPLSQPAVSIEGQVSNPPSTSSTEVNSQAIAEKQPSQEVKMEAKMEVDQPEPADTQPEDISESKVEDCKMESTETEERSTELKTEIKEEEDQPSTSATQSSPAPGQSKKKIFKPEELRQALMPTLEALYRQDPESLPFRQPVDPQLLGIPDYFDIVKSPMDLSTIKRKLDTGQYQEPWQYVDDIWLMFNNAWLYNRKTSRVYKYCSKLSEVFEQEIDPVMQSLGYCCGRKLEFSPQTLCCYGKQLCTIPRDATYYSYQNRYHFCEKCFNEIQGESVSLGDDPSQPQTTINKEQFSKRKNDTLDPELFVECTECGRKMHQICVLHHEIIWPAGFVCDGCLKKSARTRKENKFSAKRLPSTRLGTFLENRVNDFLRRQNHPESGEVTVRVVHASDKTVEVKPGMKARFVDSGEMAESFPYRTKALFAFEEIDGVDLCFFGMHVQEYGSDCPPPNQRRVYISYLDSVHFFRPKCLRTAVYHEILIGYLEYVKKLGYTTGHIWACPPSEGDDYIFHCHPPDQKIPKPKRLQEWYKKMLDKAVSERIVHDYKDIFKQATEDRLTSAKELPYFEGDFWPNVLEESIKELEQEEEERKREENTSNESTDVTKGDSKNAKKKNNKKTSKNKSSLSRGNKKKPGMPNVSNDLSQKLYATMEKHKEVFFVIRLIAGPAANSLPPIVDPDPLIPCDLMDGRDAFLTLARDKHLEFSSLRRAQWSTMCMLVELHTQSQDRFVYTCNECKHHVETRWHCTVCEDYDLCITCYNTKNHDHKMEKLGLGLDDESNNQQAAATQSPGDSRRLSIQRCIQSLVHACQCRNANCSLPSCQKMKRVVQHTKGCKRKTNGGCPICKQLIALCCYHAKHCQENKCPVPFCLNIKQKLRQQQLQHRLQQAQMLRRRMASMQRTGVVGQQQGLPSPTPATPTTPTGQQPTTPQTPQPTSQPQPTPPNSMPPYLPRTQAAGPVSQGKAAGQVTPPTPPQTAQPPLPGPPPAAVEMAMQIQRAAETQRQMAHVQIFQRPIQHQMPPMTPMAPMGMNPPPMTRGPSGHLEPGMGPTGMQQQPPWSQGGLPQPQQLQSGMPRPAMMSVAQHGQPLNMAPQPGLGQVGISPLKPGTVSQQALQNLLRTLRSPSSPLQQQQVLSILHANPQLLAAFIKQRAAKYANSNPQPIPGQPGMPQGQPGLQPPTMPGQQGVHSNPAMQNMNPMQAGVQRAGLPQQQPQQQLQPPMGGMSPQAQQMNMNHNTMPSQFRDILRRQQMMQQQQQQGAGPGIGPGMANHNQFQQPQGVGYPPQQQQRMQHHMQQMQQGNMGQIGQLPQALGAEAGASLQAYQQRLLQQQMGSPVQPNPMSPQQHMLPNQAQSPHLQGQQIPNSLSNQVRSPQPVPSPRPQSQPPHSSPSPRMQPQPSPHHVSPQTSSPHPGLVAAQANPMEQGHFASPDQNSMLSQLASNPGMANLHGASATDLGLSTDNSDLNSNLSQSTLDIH

B1: GST-fused PR-B fragment AF3 (1-170 aa) (domain or fragment, human, UniProt P06401 1-170, looked up)
chain: MTELKAKGPRAPHVAGGPPSPEVGSPLLCRPAAGPFPGSQTSDTLPEVSAIPISLDGLLFPRPCQGQDPSDEKTQDQQSLSDVEGAYSRAEATRGAGGSSSSPPEKDSGLLDSVLDTLLAPSGPGQSQPSPPACEVTSSWCLFGPELPEDPPAAPATQRVLSPLMSRSGC
Question: Does B1 bind (full-length human p300 [1])?
Answer: binds

B2: GST-fused PR-B fragment LBD (688-933 aa, which contains the AF2) (domain or fragment, human, UniProt P06401 688-933, looked up)
chain: INLLMSIEPDVIYAGHDNTKPDTSSSLLTSLNQLGERQLLSVVKWSKSLPGFRNLHIDDQITLIQYSWMSLMVFGLGWRSYKHVSGQMLYFAPDLILNEQRMKESSFYSLCLTMWQIPQEFVKLQVSQEEFLCMKVLLLLNTIPLEGLRSQTQFEEMRSSYIRELIKAIGLRQKGVVSSSQRFYQLTKLLDNLHDLVKQLHLYCLNTFIQSRALSVEFPEMMSEVIAAQLPKILAGMVKPLLFHKK
Question: Does B2 bind (full-length human p300 [1])?
Answer: binds

B3: GST-fused PR-B fragment AF1 (401-546 aa) (domain or fragment, human, UniProt P06401 401-546, looked up)
chain: PRSYLVAGANPAAFPDFPLGPPPPLPPRATPSRPGEAAVTAAPASASVSSASSSGSTLECILYKAEGAPPQQGPFAPPPCKAPGASGCLLPRDGLPSTSASAAAAGAAPALYPALGLNGLPQLGYQAAVLKEGLPQVYPPYLNYLR
Question: Does B3 bind [2]?
Answer: binds

Question: Does B3 bind (full-length human p300 [1])?
Answer: binds

Question: Does B4 bind (full-length human p300 [3])?
Answer: binds

B5: full-length human progesterone receptor-B (receptor, UniProt P06401 1-933, looked up)
chain: MTELKAKGPRAPHVAGGPPSPEVGSPLLCRPAAGPFPGSQTSDTLPEVSAIPISLDGLLFPRPCQGQDPSDEKTQDQQSLSDVEGAYSRAEATRGAGGSSSSPPEKDSGLLDSVLDTLLAPSGPGQSQPSPPACEVTSSWCLFGPELPEDPPAAPATQRVLSPLMSRSGCKVGDSSGTAAAHKVLPRGLSPARQLLLPASESPHWSGAPVKPSPQAAAVEVEEEDGSESEESAGPLLKGKPRALGGAAAGGGAAAVPPGAAAGGVALVPKEDSRFSAPRVALVEQDAPMAPGRSPLATTVMDFIHVPILPLNHALLAARTRQLLEDESYDGGAGAASAFAPPRSSPCASSTPVAVGDFPDCAYPPDAEPKDDAYPLYSDFQPPALKIKEEEEGAEASARSPRSYLVAGANPAAFPDFPLGPPPPLPPRATPSRPGEAAVTAAPASASVSSASSSGSTLECILYKAEGAPPQQGPFAPPPCKAPGASGCLLPRDGLPSTSASAAAAGAAPALYPALGLNGLPQLGYQAAVLKEGLPQVYPPYLNYLRPDSEASQSPQYSFESLPQKICLICGDEASGCHYGVLTCGSCKVFFKRAMEGQHNYLCAGRNDCIVDKIRRKNCPACRLRKCCQAGMVLGGRKFKKFNKVRVVRALDAVALPQPVGVPNESQALSQRFTFSPGQDIQLIPPLINLLMSIEPDVIYAGHDNTKPDTSSSLLTSLNQLGERQLLSVVKWSKSLPGFRNLHIDDQITLIQYSWMSLMVFGLGWRSYKHVSGQMLYFAPDLILNEQRMKESSFYSLCLTMWQIPQEFVKLQVSQEEFLCMKVLLLLNTIPLEGLRSQTQFEEMRSSYIRELIKAIGLRQKGVVSSSQRFYQLTKLLDNLHDLVKQLHLYCLNTFIQSRALSVEFPEMMSEVIAAQLPKILAGMVKPLLFHKK
Question: Which results are given for B5?
Answer: stoichiometry N (cryo-EM structure): 2; binding result [4]: binds; binding result (full-length human p300 [3]): binds
